One block for each binder: values may come before it.
Key:
CD24 [1] = target: T1, CD24 (human, UniProt P25063 27-59); assay: flow cytometry on MCF-7 cells that carry both CD24 and CD47; the two targets are not resolved
T1 construct: whole, on cells; GPI-anchored cell surface protein; also called human CD24; hCD24
T1 chain (looked up): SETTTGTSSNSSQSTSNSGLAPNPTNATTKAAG
Method: (§1) Cells were washed with cold PBS twice, and then incubated with 100 μl FITC-conjugated secondary antibody against human IgG-Fc (Cat #F9512, Sigma) for 45 min. Cells were washed twice and re-suspended in 200 μl PBS. Then, the cells were subject to FACS analysis using a flow cytometer (Merck Millipore, Guava® easyCyte 5HT).

CD47 [2] = target: T2, CD47 (human, UniProt Q08722 19-323); assay: as above
T2 construct: whole, on cells; also called CD47s on Jurkat cells; CD47s on MCF-7 human breast cancer cells
T2 sequence (Q08722 19-323): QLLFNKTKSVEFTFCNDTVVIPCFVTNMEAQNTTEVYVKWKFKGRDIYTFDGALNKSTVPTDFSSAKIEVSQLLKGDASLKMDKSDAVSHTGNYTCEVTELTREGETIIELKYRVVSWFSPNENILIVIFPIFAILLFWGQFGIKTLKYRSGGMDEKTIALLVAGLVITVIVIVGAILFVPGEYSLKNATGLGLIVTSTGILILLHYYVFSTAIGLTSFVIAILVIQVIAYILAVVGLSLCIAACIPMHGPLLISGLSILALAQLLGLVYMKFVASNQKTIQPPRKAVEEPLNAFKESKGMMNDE
Method: as §1

CD24 [3] = target: T1, CD24; assay: flow cytometry on CD24+CD47+ MCF-7 cells; positive control
Method: as §1

CD47 [4] = target: T2, CD47; assay: flow cytometry on Jurkat cells (naturally expressing CD47), FITC anti-human IgG-Fc
Method: as §1

- binding result (CD24 [1]): binds
- binding result (CD47 [2]): binds
B1: IMM4702C (bispecific antibody, human IgG1, kappa)
heavy: DVQLQESGPDLVKPSQSLSLTCTVTGYSITSGYSWHWIRQFPGNKLEWMGYIHYSGSTKYNPSLKSRISITRDTSKNQFFLQLNSVTTEDTATYFCARGADYALDYWGQRTSVTVSSASTKGPSVFPLAPSSKSTSGGTAALGCLVKDYFPEPVTVSWNSGALTSGVHTFPAVLQSSGLYSLSSVVTVPSSSLGTQTYICNVNHKPSNTKVDKRVEPKSCDKTHTCPPCPAPELLGGPSVFLFPPKPKDTLMISRTPEVTCVVVDVSHEDPEVKFNWYVDGVEVHNAKTKPREEQYNATYRVVSVLTVLHQDWLNGKEYKCKVSNKALPAPIAATISKAKGQPREPQVYTLPPSREEMTKNQVSLTCLVKGFYPSDIAVEWESNGQPENNYKTTPPVLDSDGSFFLYSKLTVDKSRWQQGNVFSCSVMHEALHNHYTQKSLSLSPGK
light: not shown
notes: Mutated SIRPαD1 linked via (G4S)3 to the N-terminus of each light chain of IMM47C; also called recombinant fusion protein IMM4702C; IMM47C's heavy chain + SIRPαD1-linker-IMM47C's light chain

- binding result (CD24 [3]): binds
B2: IMM47H (antibody, human IgG1, kappa, V domains shown)
VH: DVQLQESGPGLVKPSETLSLTCTVSGYSITSGYSWHWIRQPPGKGLEWIGYIHYSGSTKYNPSLKSRVTISVDTSKNQFSLKLSSVTAADTAVYYCARGADYALDYWGQRTSVTVSS
VL: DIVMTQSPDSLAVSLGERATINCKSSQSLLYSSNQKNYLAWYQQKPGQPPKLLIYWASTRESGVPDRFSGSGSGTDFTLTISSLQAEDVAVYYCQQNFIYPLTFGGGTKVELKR
notes: IgG antibody with humanized VH and humanized VL; also called anti-CD24 antibody IMM47H

- binding result (CD24 [1]): binds
- binding result (CD47 [2]): binds
B3: IMM4702H (bispecific antibody, human IgG1, kappa)
heavy: DVQLQESGPGLVKPSETLSLTCTVSGYSITSGYSWHWIRQPPGKGLEWIGYIHYSGSTKYNPSLKSRVTISVDTSKNQFSLKLSSVTAADTAVYYCARGADYALDYWGQRTSVTVSSASTKGPSVFPLAPSSKSTSGGTAALGCLVKDYFPEPVTVSWNSGALTSGVHTFPAVLQSSGLYSLSSVVTVPSSSLGTQTYICNVNHKPSNTKVDKRVEPKSCDKTHTCPPCPAPELLGGPSVFLFPPKPKDTLMISRTPEVTCVVVDVSHEDPEVKFNWYVDGVEVHNAKTKPREEQYNATYRVVSVLTVLHQDWLNGKEYKCKVSNKALPAPIAATISKAKGQPREPQVYTLPPSREEMTKNQVSLTCLVKGFYPSDIAVEWESNGQPENNYKTTPPVLDSDGSFFLYSKLTVDKSRWQQGNVFSCSVMHEALHNHYTQKSLSLSPGK
light: not shown
notes: Mutated SIRPαD1 linked via (G4S)3 to the N-terminus of each light chain of IMM47H (humanized VH and VL); also called recombinant fusion protein IMM4702H; IMM47H's heavy chain + SIRPαD1-linker-IMM47H's light chain

- binding result (CD47 [4]): binds
- binding result (CD24 [1]): binds
B4: IMM4701 (bispecific antibody, human IgG1, kappa)
heavy: not shown
light: DIQMTQSPSSLSASVGDRVTITCKSSQSLLYSSNQKNYLAWYQQKPGKAPKLLIYWASTRESGVPSRFSGSGSGTDFTLTISSLQPEDFATYYCQQNFIYPLTFGGGTKVELKRTVAAPSVFIFPPSDEQLKSGTASVVCLLNNFYPREAKVQWKVDNALQSGNSQESVTEQDSKDSTYSLSSTLTLSKADYEKHKVYACEVTHQGLSSPVTKSFNRGEC
notes: Mutated SIRPαD1 linked via (G4S)3 to the N-terminus of each heavy chain of the anti-CD24 IgG IMM47 (mouse VH, humanized VL); also called recombinant fusion protein IMM4701; SIRPαD1-linker-IMM47's heavy chain + IMM47's light chain
